Several values for one entry are separate records, joined by “and”; a condition that tells them apart may be missing. Identical values can stand only once.
Biological target: the molecule itself
Assay: cryo-EM structure; α-LTX at 0.5 mg/ml in 25 mM Tris-HCl pH 8.0, 150 mM NaCl, 0.1 mM CaCl2, 0.2 mM MgCl2; 2D classification and 3D reconstruction of two tetrameric states (prepore, pore)

B1: α-latrotoxin (natural protein)
chain: EGEDLTLEEKAEICSELELQQKYVDIASNIIGDLSSLPIAGKIAGTIAAAAMTATHVASGRLDIEQTLLGCSDLPFDQIKEVLENRFNEIDRKLDSHSAALEEITKLVEKSISVVEKTRKQMNKRFDEVMKSIQDAKVSPIISKINNFARYFDTEKERIRGLKLNDYILKLEEPNGILLHFKESRTPTDDSLQAPLFSIIEEGYAVPKSIDDELAFKVLYALLYGTQTYVSVMFFLLEQYSFLANHYYEKGYLEKYDEYFNSLNNVFLDFKSSLVGTGTSNNEGLLDRVLQVLMTVKNSEFLGLEKNGVDEMLNEKINLFNKIKEEIEGKQKMTLSETPENFAQISFDKDITTPIGDWRDGREVRYAVQYASETLFSKISHWSDPVSVREKACPTLRMPVDQTRRNVLVFRKFDSSKPQLVGEITPYLSNFIDIDRDLYNAASNPDSAVGFKEFTKLNYDGANIRATFDHGRTVFHAAAKSGNDKIMFGLTFLAKSTELNQPDKKGYTPIHVAADSGNAGIVNLLIQRGVSINSKTYHFLQTPLHLAAQRGFVTTFQRLMESPEININERDKDGFTPLHYAIRGGERILEAFLNQISIDVNAKSNTGLTPFHLAIIKNDWPVASTLLGSKKVDINAVDENNITALHYAAILGYLETTKQLINLKEINANVVSSPGLLSALHYAILYKHDDVASFLMRSSNVNVNLKALGGITPLHLAVIQGRKQILSLMFDIGVNIEQKTDEKYTPLHLAAMSKYPELIQILLDQGSNFEAKTNSGATPLHLATFKGKSQAALILLNNEVNWRDTDENGQMPIHGAAMTGLLDVAQAIISIDATVVDIEDKNSDTPLNLAAQNSHIDVIKYFIDQGADINTRNKKGLAPLLAFSKKGNLDMVKYLFDKNANVYIADNDGMNFFYYAVQNGHLNIVKYAMSEKDKFEWSNTDNNRRDECPNEECAISHFAVCDAVQFDRIEIVKYFVGTLGNFAICGPLHQAARYGHLDIVKYLVEEEFLSVDGSKTDTPLCYASENGHFTVVQYLVSNGAKVNHDCGNGMTAIDKAITKNHLQVVQFLAANGVDFRRKNSRGTTPFLTAVAENALHIAEYLIREKRQDININEQNVDKDTALHLAVYYKNLQMIKLLIKYGIDVTIRNAYDKTALDIAIDAKFSNIVEYLKTKSGKFRR
notes: Tetramer in the presence of Ca2+/Mg2+; monomers, dimers and trimers stand in the same sample; Disulfide bonds seen: C34-C91 (CC1), C968-C973 (CC2), and CC3 and CC4 in AR15-19; the model ends at G1195; also called α-LTX
stoichiometry N: 4 and 3 and 2
